According to article PMC8485043:
Several values for one entry are separate records, joined by “and”; a condition that tells them apart may be missing. Equal values may be shown once.

Target: VDAC-ΔC, C-terminally truncated variant of Neurospora crassa VDAC lacking residues 269-283 (β19) (Neurospora crassa)
Assay: SEC-MALS; protein folded in DM, no sterol; UV, MALS and differential refractive index detectors, protein-conjugate analysis in ASTRA

stoichiometry N: 2 and 4
Substance: VDAC-ΔC, C-terminally truncated variant of Neurospora crassa VDAC lacking residues 269-283 (β19) (domain or fragment)
